The target of the test is T1, human LY6G6D-Fc (human, UniProt O95868 20-104).
T1 construct: also called huLY6G6D; hu Ly6G6D; not shown: linker and Fc
T1 sequence: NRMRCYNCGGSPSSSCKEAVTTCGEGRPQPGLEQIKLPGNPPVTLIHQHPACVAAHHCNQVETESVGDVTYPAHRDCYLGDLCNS
The test is described as follows: BIAcore SPR; chimeric Fab; Ly6G6D-Fc captured on Protein A chip, 37 C (FIG. 34C). On the procedure: FIG. 34C is a set of graphs showing binding of Fab variants of rabbit 20A12, rabbit 20A12 comprising […] and C50A (IA) mutations, and the polished humanized 20A12 having a QNT amino acid substitution mutations at the glycosylation site of FIG. 34B to LY6G6D, as measured using a BIAcore assay. Ly6G6D-Fc was captured on a Protein A chip, and the Fab was flowed through at 37° C..

B1: rb20A12.IA (C35I-C50A) chimeric Fab (Fab, V domains shown)
VH: QQQLEESGGDLVKPGASLTLTCTASGFDFVNNAMIWVRQAPGKGLEWIAALSFADNTAYYATWASGRFTISKISSTTVTLRMTSLTGADTATYFCMRGDLWGPGTLVTVSS
VL: DIVMTQTPSSVSAAVGGTVTINCQASESITRYLNWYQQKPGQPPKLLIYDASKLPSGVPSRFKGSGSGTQFTLTTSDLECADAATYYCQSTSFRGRSYNNTFGGGTEVVVK
modifications: CDR-L3 NNT site is N-glycosylated.
notes: also called rabbit 20A12 comprising C35I and C50A (IA) mutations
The molecule B1 returned a Kd of 0.86 nM.

For the origin of these results see US20240190966A1 (published 2024).
